# Test results taken from the MegaScale stability set (Tsuboyama et al. 2023).
# B1: 2K2A (parent)
# chain: ELREAFRLYDKEGNGYISTDVMREILAELDETLSSEDLDAMIDEIDADGSGTVDFEEFMGVMT
# Variants of: B1
# Assay: folding stability dG (cDNA display proteolysis); higher = more stable
# Details: PBS, room temperature
row,Variant,folding stability dG
1,ELREAFRLYDKEGNGYISTDVMREILAELDETLSSEDLDAMPDEIDADGSGTVDFEEFMGVMT,-0.739 kcal/mol
2,ELREAFRLYDKEGNGYISTDVMREILAELDETLSSEDLDAMVDEIDADGSGTVDFEEFMGVMT,1.34 kcal/mol
3,ELREAFRLYDKEGNGYISTDVMREILAELDETLSSEDLDAMADEIDADGSGTVDFEEFMGVMT,-0.231 kcal/mol
4,ELREAFRLYDKEGNGYISTDVMREILAELDETLSSEDLDAMTDEIDADGSGTVDFEEFMGVMT,0.392 kcal/mol
5,ELREAFRLYDKEGNGYISTDVMREILAELDETLSSEDLDAMDDEIDADGSGTVDFEEFMGVMT,-0.854 kcal/mol
6,ELREAFRLYDKEGNGYISTDVMREILAELDETLSSEDLDAMSDEIDADGSGTVDFEEFMGVMT,-0.099 kcal/mol
7,ELREAFRLYDKEGNGYISTDVMREILAELDETLSSEDLDAMFDEIDADGSGTVDFEEFMGVMT,1.08 kcal/mol
8,ELREAFRLYDKEGNGYISTDVMREILAELDETLSSEDLDAMHDEIDADGSGTVDFEEFMGVMT,-0.459 kcal/mol
9,ELREAFRLYDKEGNGYISTDVMREILAELDETLSSEDLDAMMDEIDADGSGTVDFEEFMGVMT,1.72 kcal/mol
10,ELREAFRLYDKEGNGYISTDVMREILAELDETLSSEDLDAMLDEIDADGSGTVDFEEFMGVMT,1.73 kcal/mol
11,ELREAFRLYDKEGNGYISTDVMREILAELDETLSSEDLDAMYDEIDADGSGTVDFEEFMGVMT,-0.094 kcal/mol
12,ELREAFRLYDKEGNGYISTDVMREILAELDETLSSEDLDAMGDEIDADGSGTVDFEEFMGVMT,-0.688 kcal/mol
13,ELREAFRLYDKEGNGYISTDVMREILAELDETLSSEDLDAMQDEIDADGSGTVDFEEFMGVMT,-0.244 kcal/mol
14,ELREAFRLYDKEGNGYISTDVMREILAELDETLSSEDLDAMKDEIDADGSGTVDFEEFMGVMT,-0.287 kcal/mol
15,ELREAFRLYDKEGNGYISTDVMREILAELDETLSSEDLDAMCDEIDADGSGTVDFEEFMGVMT,0.098 kcal/mol
16,ELREAFRLYDKEGNGYISTDVMREILAELDETLSSEDLDTMIDEIDADGSGTVDFEEFMGVMT,1.57 kcal/mol
17,ELREAFRLYDKEGNGYISTDVMREILAELDETLSSEDLDYMIDEIDADGSGTVDFEEFMGVMT,1.71 kcal/mol
18,ELREAFRLYDKEGNGYISTDVMREILAELDETLSSEDLDWMIDEIDADGSGTVDFEEFMGVMT,1.6 kcal/mol
19,ELREAFRLYDKEGNGYISTDVMREILAELDETLSSEDLDVMIDEIDADGSGTVDFEEFMGVMT,1.69 kcal/mol
20,ELREAFRLYDKEGNGYISTDVMREILAELDETLSSEDLDAMIDECDADGSGTVDFEEFMGVMT,0.783 kcal/mol
21,ELREAFRLYDKEGNGYISTDVMREILAELDETLSSEDLDAMIDEHDADGSGTVDFEEFMGVMT,0.664 kcal/mol
22,ELREAFRLYDKEGNGYISTDVMREILAELDETLSSEDLDAMIDEGDADGSGTVDFEEFMGVMT,0.37 kcal/mol

row,Variant,folding stability dG
1,ELREAFRLYDKEGNGYISTDVMREILAELDETLSSEDLDAMIDEFDADGSGTVDFEEFMGVMT,1.21 kcal/mol
2,ELREAFRLYDKEGNGYISTDVMREILAELDETLSSEDLDAMIDEADADGSGTVDFEEFMGVMT,1.56 kcal/mol
3,ELREAFRLYDKEGNGYISTDVMREILAELDETLSSEDLDAFIDEIDADGSGTVDFEEFMGVMT,1.5 kcal/mol
4,ELREAFRLYDKEGNGYISTDVMREILAELDETLSSEDLDAKIDEIDADGSGTVDFEEFMGVMT,1.49 kcal/mol
5,ELREAFRLYDKEGNGYISTDVMREILAELDETLSSEDLDANIDEIDADGSGTVDFEEFMGVMT,-0.4 kcal/mol
6,ELREAFRLYDKEGNGYISTDVMREILAELDETLSSEDLDAVIDEIDADGSGTVDFEEFMGVMT,1.21 kcal/mol
7,ELREAFRLYDKEGNGYISTDVMREILAELDETLSSEDLDAIIDEIDADGSGTVDFEEFMGVMT,1.86 kcal/mol
8,ELREAFRLYDKEGNGYISTDVMREILAELDETLSSEDLDAPIDEIDADGSGTVDFEEFMGVMT,-0.862 kcal/mol
9,ELREAFRLYDKEGNGYISTDVMREILAELDETLSSEDLDAWIDEIDADGSGTVDFEEFMGVMT,2.43 kcal/mol
10,ELREAFRLYDKEGNGYISTDVMREILAELDETLSSEDLDAHIDEIDADGSGTVDFEEFMGVMT,0.645 kcal/mol
11,ELREAFRLYDKEGNGYISTDVMREILAELDETLSSEDLDAQIDEIDADGSGTVDFEEFMGVMT,0.887 kcal/mol
12,ELREAFRLYDKEGNGYISTDVMREILAELDETLSSEDLDATIDEIDADGSGTVDFEEFMGVMT,0.556 kcal/mol
13,ELREAFRLYDKEGNGYISTDVMREILAELDETLSSEDLDALIDEIDADGSGTVDFEEFMGVMT,2.03 kcal/mol
14,ELREAFRLYDKEGNGYISTDVMREILAELDETLSSEDLDAAIDEIDADGSGTVDFEEFMGVMT,1.27 kcal/mol
15,ELREAFRLYDKEGNGYISTDVMREILAELDETLSSEDLDASIDEIDADGSGTVDFEEFMGVMT,0.166 kcal/mol
16,ELREAFRLYDKEGNGYISTDVMREILAELDETLSSEDLDACIDEIDADGSGTVDFEEFMGVMT,1.37 kcal/mol
17,ELREAFRLYDKEGNGYISTDVMREILAELDETLSSEDLDAYIDEIDADGSGTVDFEEFMGVMT,1.61 kcal/mol
18,ELREAFRLYDKEGNGYISTDVMREILAELDETLSSEDLDADIDEIDADGSGTVDFEEFMGVMT,-0.547 kcal/mol
19,ELREAFRLYDKEGNGYISTDVMREILAELDETLSSEDLDARIDEIDADGSGTVDFEEFMGVMT,1.47 kcal/mol
20,ELREAFRLYDKEGNGYISTDVMREILAELDETLSSEDLDAGIDEIDADGSGTVDFEEFMGVMT,0.01 kcal/mol
21,ELREAFRLYDKEGNGYISTDVMREILAELDETLSSEDLDAEIDEIDADGSGTVDFEEFMGVMT,-0.173 kcal/mol
